Measurements: patent US20260115256A1 (HANGZHOU SCIWIND BIOSCIENCES, published 2026)
*1 amine or outer side, *2 acyl side, *3 side chain or, on linkers, in order; H or OH if unused. Bridges are numbered along the chain shown (N, C = ends). Where no end group is shown, it is not given here. Side-chain parts run from the residue outwards. [ ]: non-standard residue; d: D form. The star is where a group is joined. C20 diacid = O=C(O)CCCCCCCCCCCCCCCCCCC(=O)*; C18 diacid = O=C(O)CCCCCCCCCCCCCCCCC(=O)*; γGlu = O=C(O)[C@H](CCC(=O)[*:2])N[*:1]; Hyp = O=C(O)[C@@H]1C[C@@H](O)CN1; AEEA = NCCOCCOCC(=O)O

T1: human amylin receptor (AMY3) on CHO-K1/Ga15/AMY3 cells (human, UniProt P30988 25-474; O60896 24-148)
T1 sequence (looked up) 1: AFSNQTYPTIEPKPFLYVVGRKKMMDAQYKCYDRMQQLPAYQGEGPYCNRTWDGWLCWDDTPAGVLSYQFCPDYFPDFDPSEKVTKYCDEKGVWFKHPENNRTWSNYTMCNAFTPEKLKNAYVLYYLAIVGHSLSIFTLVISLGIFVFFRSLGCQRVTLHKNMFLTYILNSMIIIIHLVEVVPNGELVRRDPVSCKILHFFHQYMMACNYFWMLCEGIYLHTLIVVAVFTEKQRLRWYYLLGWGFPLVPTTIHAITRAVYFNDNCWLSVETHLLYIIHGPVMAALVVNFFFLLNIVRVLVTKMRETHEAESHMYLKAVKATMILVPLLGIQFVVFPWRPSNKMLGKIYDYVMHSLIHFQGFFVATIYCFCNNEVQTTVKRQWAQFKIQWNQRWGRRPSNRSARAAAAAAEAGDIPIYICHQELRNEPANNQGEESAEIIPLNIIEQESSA
T1 sequence (looked up) 2: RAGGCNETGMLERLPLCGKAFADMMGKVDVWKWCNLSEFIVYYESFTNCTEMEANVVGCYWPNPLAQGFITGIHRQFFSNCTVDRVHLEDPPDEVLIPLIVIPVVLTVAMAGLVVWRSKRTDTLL


What follows are binders tested against T1, human amylin receptor (AMY3) on … (assay: cell-based or functional assay).

EC50, CRE-luciferase assay [nM] | Binder
0.039 | RCNTATCATQRLADFLRHSSNNK([AEEA-γGlu-C20 diacid])GPILPPTNVGSNT[Hyp]-NH2 (disulfide 2-7 (inferred)) [PD110]
0.01 | {C18 diacid-γGlu-AEEA}-KCNTATCATQRLADFLRHSSNNLGPILPPTNVGSNT[Hyp]-NH2 (disulfide 2-7 (inferred)) [PD125]
0.008 | RCNTATCATQRLADFLRHSSNNK([AEEA-γGlu-C18 diacid])GPILPPTNVGSNT[Hyp]-NH2 (disulfide 2-7 (inferred)) [PD111]
0.068 | {C20 diacid-γGlu-AEEA-AEEA}-KCNTATCATQRLADFLRHSSNNLGPILPPTNVGSNT[Hyp]-NH2 (disulfide 2-7 (inferred); not fully specified; printed as KCNTATCATQRLADFLRHSSNNLGPILPPTNVGSNT-trans-Hyp-NH2) [PD123]
0.028 | RCNTATCATQRLADFLRHSSNNLK([AEEA-γGlu-C18 diacid])PILPPTNVGSNT[Hyp]-NH2 (disulfide 2-7 (inferred)) [PD108]
0.772 | RCNTATCATQRLAEFLRHSSNNLK([γGlu-C20 diacid])PILPPTNVGSNTY-NH2 (disulfide 2-7 (inferred)) [PD017]
0.029 | RCNTATCATQRLADFLRHSSK([AEEA-γGlu-C20 diacid])NLGPILPPTNVGSNT[Hyp]-NH2 (disulfide 2-7 (inferred)) [PD114]
0.008 | {C18 diacid-γGlu}-KCNTATCATQRLADFLRHSSNNLGPILPPTNVGSNT[Hyp]-NH2 (disulfide 2-7 (inferred); not fully specified; printed as KCNTATCATQRLADFLRHSSNNLGPILPPTNVGSNT-trans-Hyp-NH2) [PD124]
0.032 | RCNTATCATQRLADFLRHK([AEEA-γGlu-C20 diacid])SNNLGPILPPTNVGSNT[Hyp]-NH2 (disulfide 2-7 (inferred)) [PD118]
0.018 | RCNTATCATQRLADFLRHSSNNLGK([AEEA-γGlu-C18 diacid])ILPPTNVGSNT[Hyp]-NH2 (disulfide 2-7 (inferred)) [PD121]
0.022 | {C20 diacid-γGlu}-KCNTATCATQRLADFLRHSSNNLRPILPPTNVGSNT[Hyp]-NH2 (disulfide 2-7 (inferred)) [PD158]
0.011 | RCNTATCATQRLADFLRHSSK([AEEA-γGlu-C18 diacid])NLGPILPPTNVGSNT[Hyp]-NH2 (disulfide 2-7 (inferred)) [PD115]
0.027 | RCNTATCATQRLADFLRHSSNNLK([γGlu-C18 diacid])PILPPTNVGSNT[Hyp]-NH2 (disulfide 2-7 (inferred)) [PD107]
0.067 | RCNTATCATQRLAEFLRHSSNNLK([γGlu-C20 diacid])PILPPTNVGSNTP-NH2 (disulfide 2-7 (inferred)) [PD009]
0.024 | RCNTATCATQRLADFLRHK([AEEA-γGlu-C18 diacid])SNNLGPILPPTNVGSNT[Hyp]-NH2 (disulfide 2-7 (inferred)) [PD119]
0.033 | RCNTATCATQRLADFLRHSSNNLGK([AEEA-AEEA-γGlu-C18 diacid])ILPPTNVGSNT[Hyp]-NH2 (disulfide 2-7 (inferred)) [PD105]
0.023 | RCNTATCATQRLADFLRHSSNNLGK([AEEA-γGlu-C20 diacid])ILPPTNVGSNT[Hyp]-NH2 (disulfide 2-7 (inferred)) [PD120]
0.029 | {C20 diacid-γGlu}-KCNTATCATQRLANFLVHSSNNFGPILPPTNVGSNTY-NH2 (ends and bridges not checked) [PD156]
0.033 | RCNTATCATQRLADFLRHSK([AEEA-γGlu-C20 diacid])NNLGPILPPTNVGSNT[Hyp]-NH2 (disulfide 2-7 (inferred)) [PD116]
0.014 | RCNTATCATQRLADFLRHSK([AEEA-γGlu-C18 diacid])NNLGPILPPTNVGSNT[Hyp]-NH2 (disulfide 2-7 (inferred)) [PD117]
0.01 | RCNTATCATQRLADFLRHSSNNLK([AEEA-AEEA-γGlu-C18 diacid])PILPPTNVGSNT[Hyp]-NH2 (disulfide 2-7 (inferred)) [PD109]
0.026 | RCNTATCATQRLADFLRHSSNNLK([AEEA-γGlu-C20 diacid])PILPPTNVGSNT[Hyp]-NH2 (disulfide 2-7 (inferred)) [PD106]
0.03 | RCNTATCATQRLADFLRHSSNK([AEEA-γGlu-C20 diacid])LGPILPPTNVGSNT[Hyp]-NH2 (disulfide 2-7 (inferred)) [PD112]
0.037 | {C20 diacid-γGlu}-KCNTATCATQRLADFLRHSSNNLHPILPPTNVGSNT[Hyp]-NH2 (disulfide 2-7 (inferred)) [PD159]
0.017 | RCNTATCATQRLADFLRHSSNK([AEEA-γGlu-C18 diacid])LGPILPPTNVGSNT[Hyp]-NH2 (disulfide 2-7 (inferred)) [PD113]
0.048 | {C20 diacid-γGlu-AEEA}-KCNTATCATQRLADFLRHSSNNLGPILPPTNVGSNT[Hyp]-NH2 (disulfide 2-7 (inferred); not fully specified; printed as KCNTATCATQRLADFLRHSSNNLGPILPPTNVGSNT-trans-Hyp-NH2) [PD122]
0.028 | {C18 diacid-γGlu-AEEA-AEEA}-KCNTATCATQRLADFLRHSSNNLGPILPPTNVGSNT[Hyp]-NH2 (disulfide 2-7 (inferred)) [PD126]
